Source: paper PMC4103757
Numbered stars: 1 amine (or outer) side, 2 acyl side, 3 side chain; on linkers, the order of the positions; unused ones are H or OH. Suc = O=C(CCC(=O)[*:2])[*:1]

Target: scFv-L-Aff, heterobivalent fusion protein of anti-hapten scFv (clone J42) and anti-HER2 affibody (Z_(HER2:477))
Test: SPR

{histamine-Suc}-GSYK-NH2 [hapten peptide, histamine-succinyl-GSYK]
percent inhibition of the binding of scFv-L-Aff to immobilised hapten: 84%
